Experimental data published in article PMC5920536.

Key:
[1] = molecular target: T1, full-length human TRPML1 (transient receptor potential mucolipin 1) (human), Q9GZU1; experiment: cryo-EM structure; conditions: remark: other sources report otherwise
T1 chain: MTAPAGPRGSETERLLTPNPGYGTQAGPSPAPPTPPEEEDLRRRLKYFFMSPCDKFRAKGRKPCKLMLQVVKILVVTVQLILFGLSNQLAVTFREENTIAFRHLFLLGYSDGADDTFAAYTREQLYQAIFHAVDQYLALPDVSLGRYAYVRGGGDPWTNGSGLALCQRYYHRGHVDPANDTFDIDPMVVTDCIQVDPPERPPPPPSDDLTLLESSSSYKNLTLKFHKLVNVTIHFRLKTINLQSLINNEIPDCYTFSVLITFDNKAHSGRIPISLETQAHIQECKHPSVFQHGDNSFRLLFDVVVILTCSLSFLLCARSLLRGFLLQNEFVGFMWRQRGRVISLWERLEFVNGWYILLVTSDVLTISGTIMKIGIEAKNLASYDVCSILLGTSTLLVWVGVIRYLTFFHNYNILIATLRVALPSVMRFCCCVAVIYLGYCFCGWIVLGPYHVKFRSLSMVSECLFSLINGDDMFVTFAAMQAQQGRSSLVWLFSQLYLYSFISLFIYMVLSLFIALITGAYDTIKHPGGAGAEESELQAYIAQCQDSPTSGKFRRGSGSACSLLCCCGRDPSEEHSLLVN

[2] = molecular target: T1, full-length human TRPML1 (transient …); experiment: cryo-EM structure; conditions: remark: other sources report otherwise

B1: full-length human TRPML1 (transient receptor potential mucolipin 1), Q9GZU1 1-580 (natural protein)
chain: MTAPAGPRGSETERLLTPNPGYGTQAGPSPAPPTPPEEEDLRRRLKYFFMSPCDKFRAKGRKPCKLMLQVVKILVVTVQLILFGLSNQLAVTFREENTIAFRHLFLLGYSDGADDTFAAYTREQLYQAIFHAVDQYLALPDVSLGRYAYVRGGGDPWTNGSGLALCQRYYHRGHVDPANDTFDIDPMVVTDCIQVDPPERPPPPPSDDLTLLESSSSYKNLTLKFHKLVNVTIHFRLKTINLQSLINNEIPDCYTFSVLITFDNKAHSGRIPISLETQAHIQECKHPSVFQHGDNSFRLLFDVVVILTCSLSFLLCARSLLRGFLLQNEFVGFMWRQRGRVISLWERLEFVNGWYILLVTSDVLTISGTIMKIGIEAKNLASYDVCSILLGTSTLLVWVGVIRYLTFFHNYNILIATLRVALPSVMRFCCCVAVIYLGYCFCGWIVLGPYHVKFRSLSMVSECLFSLINGDDMFVTFAAMQAQQGRSSLVWLFSQLYLYSFISLFIYMVLSLFIALITGAYDTIKHPGGAGAEESELQAYIAQCQDSPTSGKFRRGSGSACSLLCCCGRDPSEEHSLLVN
- stoichiometry N [1]: 4
- stoichiometry N [2]: 4
